The record followed here is patent US20220265819A1 (GEN2 NEUROSCIENCE, published 2022).

By EC50 is commonly meant the midpoint of the concentration-response curve.

Where no end group is shown, it is not given here.

The target in assay [1] is T1, Bovine serum albumin (bovine, UniProt P02769 25-607).
T1 construct: Negative control antigen in ELISA; also called BSA
The assay is described as follows: phage ELISA. On the procedure: (§1) 10.1 Phage ELISA: Supernatants prepared from bacterial cultures infected with phage displaying scFv were tested for binding to full length recombinant 2N4R tau (100 ng/well), target peptide (SEQ ID NO: 13) conjugated to BSA or transferrin (1 μg/well) or BSA (1% in TBS) using standard methods. Antigen was coated onto ELISA plates, then removed, and plates were blocked for 1 h with 5% dried milk in TBS. Samples were diluted 1:25 in 1% BSA/TBS then added to the ELISA plate for 1 h at room temperature (RT). Plates were then washed ×4 with TBS/0.1% Tween (TBST). Alpha-M13-HRP antibody (Abcam, Cambridge, UK) was added (1:5000 dilution in 5% milk/TBS) and incubated for 1 h at RT before washing ×4. TMB ELISA solution was added to each well for 10 min at RT, followed by 1 M sulphuric acid. OD was then measured at 450 nm.
For orientation: An ELISA detects its analyte on a solid surface through an enzyme-linked reagent.

The target of assay [2] is T2, full length recombinant human 2N4R tau (amino acids 1-441) (human, UniProt P10636 1-758).
T2 construct: Bought (rPeptide); recombinant, non-phosphorylated; also called recombinant tau
In words: phage ELISA, tau 100 ng/well, phage supernatant 1:25, anti-M13-HRP, n=1.
Source text: (§2) FIG. 7. A panel of phage display-derived anti-tau scFv bind to linear immunogen peptide and full length 2N4R tau in phage ELISA. Phage expressing scFv clones bind to the short linear peptide (SEQ ID NO: 13) (A) conjugated to BSA (black bars) or transferrin (white bars) and to full length recombinant 2N4R tau (B). […] Binding of phage was detected using an HRP-conjugated anti-alpha-M13 antibody and data shown are from a representative experiment (n=1).
as §1

Assay [3] deals with T3, antigen peptide [C]-SPVVSGDTSPRHLSN-amide (tau 396-410 with N-terminal cysteine) (human).
T3 construct: Not phosphorylated; Coated free, or conjugated through the N-terminal Cys to BSA or transferrin (phage ELISA); The N-terminal Cys is not part of tau; also called target peptide; short linear peptide
T3 peptide: CSPVVSGDTSPRHLSN-NH2
In words: phage ELISA, phage supernatant 1:25, anti-M13-HRP, n=1.
Source text: as §2, §1

Assay [4] addresses T1, Bovine serum albumin. In words: ELISA on 1% BSA, HEK293F supernatant, anti-rabbit IgG-HRP, n=1. The procedure: FIG. 9. A panel of anti-tau IgG bind to linear immunogen peptide and full length recombinant 2N4R tau in ELISA format. […] Binding of anti-tau IgG was detected using an HRP-conjugated anti-rabbit secondary antibody and data shown are from a representative experiment (n=1).
(§3) Antigen was removed from wells and the plates were then blocked for 1 hour at RT with 5% dried milk in 1×TBS. Blocking solution was removed. HEK293F cell supernatant (10 μg/mL, to 0.0001 μg/mL in 1% BSA/1×TBS) was added to relevant wells, and plates were incubated for 1 hour at RT with gentle shaking. Plates were then washed four times with TBS/0.1% Tween (TBST). Anti-rabbit IgG-HRP antibody (Sigma. St Louis, Mo., USA), diluted 1:5000 in 5% milk/TBS, was added to each well and plates were incubated for 1 hour at RT with gentle shaking before being washed four times with TBST. 3,3′,5,5′-tetramethylbenzidine (TMB) ELISA solution was added to each well and plates were incubated for 15 mins at RT. An equal volume of 1 M sulfuric acid was added to each well and OD was measured at 450 nm.

In assay [5] the target is T2, full length recombinant human 2N4R tau …. In words: ELISA, purified IgG on coated tau, half maximal signal. On the procedure:
as §3, with “13.1 ELISA analyses: ELISA plates were coated with antigen (full length tau, 100 ng/well; or 1% BSA in 1×TBS) in 1× carbonate-bicarbonate buffer for 1 hour at 37° C. Antigen” for “Antigen”, “1×TBS (200 μl/well).” for “1×TBS.”, “removed, diluted IgG” for “removed. HEK293F cell supernatant”, “(Sigma,” for “(Sigma.”, “TBST. 25 μL” for “TBST.”, “RT, an” for “RT. An”
Data were plotted as log concentration of IgG against ELISA signal (OD) and EC₅₀ values were calculated using a four parameter logistic equation with variable slope using GraphPad Prism (GraphPad Software Inc, La Jolla, Calif., USA).

For assay [6] the target is unchanged. In words: ELISA, HEK293F supernatant on coated tau. On the procedure: as §3

T2 sequence (P10636 other isoform, or with tags, fused parts or gaps limits assumed): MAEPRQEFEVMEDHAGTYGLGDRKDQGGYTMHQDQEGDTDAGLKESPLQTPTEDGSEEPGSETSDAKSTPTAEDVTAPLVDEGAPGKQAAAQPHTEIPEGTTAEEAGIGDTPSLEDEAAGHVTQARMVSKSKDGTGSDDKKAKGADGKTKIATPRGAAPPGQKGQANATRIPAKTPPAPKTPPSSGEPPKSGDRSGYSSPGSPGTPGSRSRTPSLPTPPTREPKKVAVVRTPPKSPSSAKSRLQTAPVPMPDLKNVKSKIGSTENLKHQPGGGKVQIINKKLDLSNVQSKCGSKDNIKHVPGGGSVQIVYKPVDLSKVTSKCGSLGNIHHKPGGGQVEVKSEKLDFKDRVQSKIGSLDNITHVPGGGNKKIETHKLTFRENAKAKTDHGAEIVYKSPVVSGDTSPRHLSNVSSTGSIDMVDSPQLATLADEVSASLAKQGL
T1 sequence (P02769 25-607 limits assumed): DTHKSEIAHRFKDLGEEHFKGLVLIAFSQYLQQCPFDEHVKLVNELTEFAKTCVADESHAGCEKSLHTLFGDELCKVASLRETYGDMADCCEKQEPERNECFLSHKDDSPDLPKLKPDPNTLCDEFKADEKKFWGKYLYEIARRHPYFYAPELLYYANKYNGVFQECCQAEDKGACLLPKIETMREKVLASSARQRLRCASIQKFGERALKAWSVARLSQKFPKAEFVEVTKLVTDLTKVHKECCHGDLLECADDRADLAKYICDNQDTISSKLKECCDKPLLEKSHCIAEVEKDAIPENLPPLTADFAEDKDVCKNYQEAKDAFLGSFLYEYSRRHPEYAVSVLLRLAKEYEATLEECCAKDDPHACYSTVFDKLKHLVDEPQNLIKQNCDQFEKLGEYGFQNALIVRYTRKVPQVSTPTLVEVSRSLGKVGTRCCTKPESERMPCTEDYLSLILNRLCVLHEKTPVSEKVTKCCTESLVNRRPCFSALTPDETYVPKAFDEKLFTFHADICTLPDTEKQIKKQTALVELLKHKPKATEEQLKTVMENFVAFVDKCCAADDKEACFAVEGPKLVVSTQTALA

B1: Clone 11 human scFv (phage displayed) (scFv, V domains shown)
VH: QVQLQQWGGGLVKPSETLSLTCGVSGGSFNDYYWTWIRQPQGKGLEWIGEINHVGSSRYNPSLGSRVTMSVDTSKSQFSLTLTAVTAADTAIYYCTRGRKTRRVKFFSRYSRDWFDPWGQGSRVTVSS
VL: VMTQSPATLSVSPGERATLSCRASQSVSSNLAWYQQKPGQAPRLLIYGASSRATGIPDRFSGSGSGTDFTLTISRLEPEDFATYYCQQLNSYPFTFGPGTKVDIK
notes: also called rx7; C6
Turning to B1, the figures for the binding result in assay [1], in assay [2] and in assay [3] were “no binding (tested: 1:25 phage supernatant)”, “binds” and “binds”, respectively.

B2: Clone 12 human scFv (phage displayed) (scFv, V domains shown)
VH: QVQLQQWGGGLVKPSETLSLTCGVSGGSFNDYYWTWIRQPQGKGLEWIGEINHVGSSRYNPSLGSRVTMSVDTSKSQFSLTLTAVTAADTAIYYCTRGRKTRRVKFFSRYSRDWFDPWGQGSRVTVSS
VL: MTQSPSSLSASVGDRVTITCRASQGISNYLAWYQQKPGKVPKLLIYAASTLQSGVPSRFSGSGSGTDFTLTISSLQPEDVATYYCQKYNSAPFTFGPGTKVDIK
notes: also called rx8; H11
For B2, the binding result is “no binding (tested: 1:25 phage supernatant)” in assay [1], “binds” in assay [2] and “binds” in assay [3].

B3: Clone 1 rabbit monoclonal IgG (antibody, V domains shown)
VH: QSLEESGGGLVKPGGTLTLTCTVSGFSLNNYDMSWVRQAPGKGLEWIGTVSTTYRRYYASWAKGRFTISKTSSTTVDLKMTSLTTEDTATYFCAASGIWGPGTLVTVSL
VL: AQVLTQTTSPVSAAVGGTVTINCQSSQRVYSNYLAWYQQKPGQPPKRLIFLASTLESGVPSRFSGSGSGTQFTLTISDLECDDAATYYCAGTYTGSIWAFGGGTEVVVKG
notes: Rabbit IgG expressed in HEK293F (pRab293); also called P1-D4; #28
Turning to B3, the binding result in assay [4] is “no binding (tested: supernatant 1:50)”. For the same molecule, the EC50 in assay [5] stood at 0.73 nM. Further, the “OD (ELISA)” value in assay [6] was 0.3 OD.

B4: Clone 9 human scFv (phage displayed) (scFv, V domains shown)
VH: VQLVESGGGFVQPGGSLRLSCAASGFTFTDYGIHWVRQAPGKGLEWVAVISHDGSHKYYSDSVKGRSTISRDSSDNTVSLQLDGLRADDTALYYCAKDLPQTGALDFWGRGTLITVSS
VL: MTQSPSSLSASVGDRVTITCQASQDISNYLNWYQQKPGKAPKLLIYDASNLETGVPSRFSGSGSGTDFTFTISSLQPEDFATYYCQQANSFPITFGQGTRLEIK
notes: also called rx2; E5
Regarding B4, the figures for the binding result in assay [1], in assay [2] and in assay [3] were “no binding (tested: 1:25 phage supernatant)”, “binds” and “binds”, respectively.

B5: Clone 6 rabbit monoclonal IgG (antibody, V domains shown)
VH: QSVEESGGRLVTPGTPLTLTCTVSGFSLSSYDMSWVRQAPGKGLEWIGTIGRYYNTYYATWAKGRFTISKTSSTTVDLKMTSLTTEDTATYFCASSGIWGPGTLVTVSL
VL: AQVLTQTASPVSAAVGGTVTINCQSSQTVYNNNYLSWYQQKPGQPPKRLIYLASTLESGVPSRFSGSGSGTQFTLTISGVVCDDAATYYCAGTYSGSIWAFGGGTEVVVKG
notes: Rabbit IgG expressed in HEK293F; also called P2-C11; A4
Take B5: the binding result in assay [4] is reported as “no binding (tested: supernatant 1:50)”. Further, the “OD (ELISA)” value in assay [6] came to 0.3 OD.

B6: Clone 4 rabbit monoclonal IgG (antibody, V domains shown)
VH: QSVEESGGRLVTPGTPLTLTCTVSGFSLSSYDMSWVRQAPGKGLEWIGTIGRYYNTYYATWAKGRFTISKTSSTTVDLKMTSLTTEDTATYFCASSGIWGPGTLVTVSL
VL: AQVLTQTASPVSAAVGGTVTINCQSSQTVYNNNYLSWYQQKPGQPPKRLIYLASTLESGVPSRFSGSGSGTQFTLTISGVVCDDAATYYCAGTYSGSIWAFGGGTEVVVKG
notes: Rabbit IgG expressed in HEK293F; also called P2-E5; B3
With B6, the binding result in assay [4] is listed as “no binding (tested: supernatant 1:50)”. For the same molecule, the “OD (ELISA)” value in assay [6] was 0.3 OD.

B7: Clone 5 rabbit monoclonal IgG (antibody, V domains shown)
VH: QSLEESGGRLVAPGTPLTLTCTVSGFSLSSYDMSWVRQAPGRGLEWIGTISSSYRTYYASWAKGRFTISKTSSTTVDLKMTSLTTEDTATYFCASSGIWGPGTLVTVSL
VL: AQVLTQTASPVSAAVGGTVTINCQSSQRVYNNYLAWYQQKPGQPPKRLIYLASTLESGVPSRFSGSGSGTQFTLTISGVVCDDAATYYCAGTYSGSIWAFGGGTEVVVKG
notes: Rabbit IgG expressed in HEK293F; also called P1-B2; A1
As to B7, the binding result in assay [4] is “no binding (tested: supernatant 1:50)”. Also, the “OD (ELISA)” value in assay [6] is 0.3 OD.

B8: Clone 3 rabbit monoclonal IgG (antibody, V domains shown)
VH: QSVEESGGRLVTPGTPLTLTCTASGFSLSRYDMSWVRQAPGKGLEWIGTISGSYNTYYMSWAKGRFTISKTSSTTVDLKMTSLTTEDTATYFCASSGIWGPGTLVTVSL
VL: AQVLTQTASPVSAAVGGTVTINCQSSQRVYSNYLSWYQQKPGQPPRRLIWLASTLESGVPSRFSGSGSGTQFTLTISGVVCDDAATYYCAGTYSGSIWAFGGGTEVVVKG
notes: Rabbit IgG expressed in HEK293F; also called P2-B12; D4
As for B8, the binding result in assay [4] is listed as “no binding (tested: supernatant 1:50)”. Also, in assay [6], the “OD (ELISA)” value is 0.3 OD.

B9: Clone 7 rabbit monoclonal IgG (antibody, V domains shown)
VH: QSVEESGGRLVTPGTPLTLTCTVSGFSLSSYDMSWVRQAPGKGLEWIGTIGRYYNTYYATWAKGRFTISKTSSTTVDLKMTSLTTEDTATYFCASSGIWGPGTLVTVSL
VL: AQVLTQTASPVSAAVGGTVTINCQSSQTVYNNNYLSWYQQKPGQPPKRLIYLASTLESGVPSRFSGSGSGTQFTLTISGVVCDDAATYYCAGTYSGSIWAFGGGTEVVVKG
notes: Rabbit IgG expressed in HEK293F; also called P1-D10; D2
B9: the binding result in assay [4] is “no binding (tested: supernatant 1:50)”. In addition, in assay [6], the “OD (ELISA)” value worked out at 0.3 OD.

B10: Clone 8 rabbit monoclonal IgG (antibody, V domains shown)
VH: QSLEESGGRLVAPGTPLTLTCTVSGFSLSSYDMSWVRQAPGRGLEWIGTISSSYRTYYASWAKGRFTISKTSSTTVDLKMTSLTTEDTATYFCASSGIWGPGTLVTVSL
VL: AQVLTQTASPVSAAVGGTVTINCQSSQRVYNNYLAWYQQKPGQPPKRLIYLASTLESGVPSRFSGSGSGTQFTLTISGVVCDDAATYYCAGTYSGSIWAFGGGTEVVVKG
notes: Rabbit IgG expressed in HEK293F; also called P2-F3; H2
In the case of B10, the binding result in assay [4] was “no binding (tested: supernatant 1:50)”. The “OD (ELISA)” value in assay [6] was 0.3 OD.

B11: Clone 13 human scFv (phage displayed) (scFv, V domains shown)
VH: ESGGGVVKPGGSLRLACEASGFTFNKYAMSWVRQAPGKGLEWVSGNSGSGNSTYYADSVKGRFTISRDNSKNILYLDMNNLRAEDTALYYCAKTRGAGRRKPYGMDVWGHGTTVTVSS
VL: VMTQSPSTLSLSPGERATLSCRASQSVANNYLAWYQHKPGQAPRVLIYGASSRATGIPDRFSGSGSGTDFTLTISRLEPEDFAVYYCQQYGSSPRTFGGGTKLEIK
notes: also called rx9; D12
For the molecule B11, in assay [1], the binding result was “no binding (tested: 1:25 phage supernatant)”.
